# In the supplement of paper PMC10065799, “High-throughput profiling of sequence recognition by tyrosine kinases and SH2 domains using bacterial peptide display” (eLife, 2023):
# Target: MERTK (UniProt Q12866)
# Experiment: phosphorylation enrichment, bacterial display (enrichment ratio); higher = better substrate or ligand; peptides without Tyr show the background
# 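Note: 11-residue human phosphosite peptides and single-mutation variants displayed on the E. coli surface, counted by deep sequencing, each peptide's frequency after selection divided by its frequency in the unselected input library; frequency after pTyr selection over input frequency; kinase dosed for 20-30% of maximal phosphorylation in three min.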
# Chain of MERTK (Q12866 whole entry, looked up): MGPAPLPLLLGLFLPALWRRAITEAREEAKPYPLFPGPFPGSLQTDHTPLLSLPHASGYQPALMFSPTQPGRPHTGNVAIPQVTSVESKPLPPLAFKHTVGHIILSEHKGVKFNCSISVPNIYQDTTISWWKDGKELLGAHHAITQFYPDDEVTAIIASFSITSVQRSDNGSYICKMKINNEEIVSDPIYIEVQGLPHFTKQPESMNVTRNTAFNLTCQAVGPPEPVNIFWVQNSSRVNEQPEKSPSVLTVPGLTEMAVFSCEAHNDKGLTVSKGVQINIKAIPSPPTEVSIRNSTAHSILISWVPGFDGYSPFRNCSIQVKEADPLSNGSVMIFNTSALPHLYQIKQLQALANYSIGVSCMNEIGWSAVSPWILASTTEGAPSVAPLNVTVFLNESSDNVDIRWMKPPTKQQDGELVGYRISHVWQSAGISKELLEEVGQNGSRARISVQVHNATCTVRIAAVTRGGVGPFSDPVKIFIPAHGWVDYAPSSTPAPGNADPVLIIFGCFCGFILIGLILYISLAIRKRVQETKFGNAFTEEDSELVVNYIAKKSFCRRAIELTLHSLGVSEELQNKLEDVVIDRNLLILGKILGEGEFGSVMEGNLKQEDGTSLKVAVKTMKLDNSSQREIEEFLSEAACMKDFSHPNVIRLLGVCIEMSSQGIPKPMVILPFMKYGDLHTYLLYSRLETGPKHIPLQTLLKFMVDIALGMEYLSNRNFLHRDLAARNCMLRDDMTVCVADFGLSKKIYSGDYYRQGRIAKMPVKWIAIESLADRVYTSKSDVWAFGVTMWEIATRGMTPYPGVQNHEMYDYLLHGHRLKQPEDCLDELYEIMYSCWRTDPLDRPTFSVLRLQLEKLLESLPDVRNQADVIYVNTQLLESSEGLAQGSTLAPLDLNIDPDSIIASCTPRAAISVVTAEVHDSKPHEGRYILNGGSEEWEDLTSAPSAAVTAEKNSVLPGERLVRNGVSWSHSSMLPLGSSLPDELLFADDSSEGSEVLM
row,Sequence,phosphorylation enrichment
1,FRTPGYREVVI [TNS2_Y673_A670T_YF],0.546
2,ISNATYKQIGL [FLT1_Y199_E201Q],0.419
3,GRLFAYPDTHC [CAT_Y358_R363C],0.432
4,SLGKGYSDGGC [MC4R_Y35],0.392
5,EEGNPYYSGAR [MCCC2_Y520_S523G],0.449
6,GFPVRYTDVSN [DNMT3B_Y815_H814R],0.466
7,EIVFVYVKKRS [DNAI2_Y7_YF],0.296
8,QPSPSYDSSGG [TCF12_Y70_R74G],0.452
9,WSRAMYPDLGP [STARD8_Y330],0.478
10,IFHENYNAGTF [CFI_Y421_YF],0.415
11,DMGAQYAAASR [ARID1B_Y483_P488R],0.31
12,FQGRRYDCDCD [CRYGS_Y21],0.529
13,HNVPIYEGFGL [ACTA1_Y168_A172G_YF],12.1
14,PSTYRYERGSR [INPPL1_Y663_P659S],0.561
15,NAGAFYALSTL [FLVCR2_Y325],4.76
16,IEPVIYVVQRR [ANOS1_Y217],0.531
17,PSSNLYYRWLT [CNGA3_Y168],12.4

row,Sequence,phosphorylation enrichment
1,ETELPYQELQG [TYROBP_Y91_S89L],0.566
2,LRSKQYLRNPP [SHC1_Y315_F312S],0.364
3,KSFDMYSGDVM [FAM3D_Y122_A118S],0.914
4,ADRNHYRRFPR [YBX1_Y145_YF],0.552
5,QQMGTYGVRAA [ICAM2_Y260_R256Q],0.658
6,DDYDLYGGEKF [PTPN11_Y66_Y62D],0.439
7,MTRDIYETDFF [INSR_Y1185_YF],1.22
8,KLIETCFSKNF [PLP1_Y50_Y50C_YF],0.405
9,RIFDFYSARKT [STOX1_Y858_A863T_YF],0.595
10,FRDALYKFIVD [PHEX_Y250_M253I_YF],0.902
11,GDGRFYMKEAI [PGM1_Y66],0.311
12,YKEDPYLVVNP [MCM6_Y810_E806K],0.455
13,PSPMPYACCQM [FOXL2_Y215_S217C],0.615
14,IPTPAYQSLPA [PDCD6IP_Y727_S730L],0.898
15,IFRASYFRRGD [LTK_Y676_YF],0.571
16,DSYWSYCNAVA [SLC20A2_Y436_S434W],0.952

# System: Fer (mouse)
# Experiment: as above
row,Sequence,phosphorylation enrichment
1,FRTPGYREVVI [TNS2_Y673_A670T_YF],0.473
2,ISNATYKQIGL [FLT1_Y199_E201Q],0.362
3,GRLFAYPDTHC [CAT_Y358_R363C],0.479
4,SLGKGYSDGGC [MC4R_Y35],0.399
5,EEGNPYYSGAR [MCCC2_Y520_S523G],0.425
6,GFPVRYTDVSN [DNMT3B_Y815_H814R],0.398
7,EIVFVYVKKRS [DNAI2_Y7_YF],0.593
8,QPSPSYDSSGG [TCF12_Y70_R74G],0.553
9,WSRAMYPDLGP [STARD8_Y330],0.435
10,IFHENYNAGTF [CFI_Y421_YF],0.435
11,DMGAQYAAASR [ARID1B_Y483_P488R],0.393
12,FQGRRYDCDCD [CRYGS_Y21],0.368
13,HNVPIYEGFGL [ACTA1_Y168_A172G_YF],18.8
14,PSTYRYERGSR [INPPL1_Y663_P659S],0.474
15,NAGAFYALSTL [FLVCR2_Y325],3.19
16,IEPVIYVVQRR [ANOS1_Y217],0.271
17,PSSNLYYRWLT [CNGA3_Y168],6.19

row,Sequence,phosphorylation enrichment
1,ETELPYQELQG [TYROBP_Y91_S89L],0.997
2,LRSKQYLRNPP [SHC1_Y315_F312S],0.413
3,KSFDMYSGDVM [FAM3D_Y122_A118S],0.589
4,ADRNHYRRFPR [YBX1_Y145_YF],0.603
5,QQMGTYGVRAA [ICAM2_Y260_R256Q],0.339
6,DDYDLYGGEKF [PTPN11_Y66_Y62D],0.957
7,MTRDIYETDFF [INSR_Y1185_YF],1.15
8,KLIETCFSKNF [PLP1_Y50_Y50C_YF],0.504
9,RIFDFYSARKT [STOX1_Y858_A863T_YF],0.311
10,FRDALYKFIVD [PHEX_Y250_M253I_YF],0.479
11,GDGRFYMKEAI [PGM1_Y66],0.549
12,YKEDPYLVVNP [MCM6_Y810_E806K],0.46
13,PSPMPYACCQM [FOXL2_Y215_S217C],0.831
14,IPTPAYQSLPA [PDCD6IP_Y727_S730L],0.341
15,IFRASYFRRGD [LTK_Y676_YF],0.439
16,DSYWSYCNAVA [SLC20A2_Y436_S434W],0.644

# Target: Hck (UniProt P08631)
# Experiment: as above
# Chain of Hck (P08631 whole entry, looked up): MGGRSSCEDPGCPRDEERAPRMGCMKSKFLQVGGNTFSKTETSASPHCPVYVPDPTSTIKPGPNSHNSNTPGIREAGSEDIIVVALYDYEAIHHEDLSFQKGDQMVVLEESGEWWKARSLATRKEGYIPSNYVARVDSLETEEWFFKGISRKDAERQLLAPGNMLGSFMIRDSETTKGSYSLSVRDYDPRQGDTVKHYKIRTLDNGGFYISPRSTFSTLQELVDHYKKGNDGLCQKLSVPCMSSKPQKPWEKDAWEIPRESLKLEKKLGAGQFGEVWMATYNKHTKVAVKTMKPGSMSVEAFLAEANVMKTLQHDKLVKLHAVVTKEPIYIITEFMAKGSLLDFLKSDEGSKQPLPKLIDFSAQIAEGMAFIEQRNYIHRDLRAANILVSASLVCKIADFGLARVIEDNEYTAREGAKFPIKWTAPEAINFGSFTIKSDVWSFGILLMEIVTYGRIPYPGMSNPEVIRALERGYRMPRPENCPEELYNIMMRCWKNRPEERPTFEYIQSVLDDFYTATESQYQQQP
row,Sequence,phosphorylation enrichment
1,FRTPGYREVVI [TNS2_Y673_A670T_YF],0.43
2,ISNATYKQIGL [FLT1_Y199_E201Q],0.349
3,GRLFAYPDTHC [CAT_Y358_R363C],0.481
4,SLGKGYSDGGC [MC4R_Y35],0.427
5,EEGNPYYSGAR [MCCC2_Y520_S523G],1.01
6,GFPVRYTDVSN [DNMT3B_Y815_H814R],0.451
7,EIVFVYVKKRS [DNAI2_Y7_YF],0.456
8,QPSPSYDSSGG [TCF12_Y70_R74G],0.604
9,WSRAMYPDLGP [STARD8_Y330],0.463
10,IFHENYNAGTF [CFI_Y421_YF],0.417
11,DMGAQYAAASR [ARID1B_Y483_P488R],0.402
12,FQGRRYDCDCD [CRYGS_Y21],0.5
13,HNVPIYEGFGL [ACTA1_Y168_A172G_YF],13.5
14,PSTYRYERGSR [INPPL1_Y663_P659S],0.661
15,NAGAFYALSTL [FLVCR2_Y325],0.752
16,IEPVIYVVQRR [ANOS1_Y217],0.315
17,PSSNLYYRWLT [CNGA3_Y168],8.15

row,Sequence,phosphorylation enrichment
1,ETELPYQELQG [TYROBP_Y91_S89L],0.941
2,LRSKQYLRNPP [SHC1_Y315_F312S],0.4
3,KSFDMYSGDVM [FAM3D_Y122_A118S],1.13
4,ADRNHYRRFPR [YBX1_Y145_YF],0.556
5,QQMGTYGVRAA [ICAM2_Y260_R256Q],3.77
6,DDYDLYGGEKF [PTPN11_Y66_Y62D],2.25
7,MTRDIYETDFF [INSR_Y1185_YF],1.4
8,KLIETCFSKNF [PLP1_Y50_Y50C_YF],0.492
9,RIFDFYSARKT [STOX1_Y858_A863T_YF],1.37
10,FRDALYKFIVD [PHEX_Y250_M253I_YF],0.56
11,GDGRFYMKEAI [PGM1_Y66],0.454
12,YKEDPYLVVNP [MCM6_Y810_E806K],0.591
13,PSPMPYACCQM [FOXL2_Y215_S217C],0.427
14,IPTPAYQSLPA [PDCD6IP_Y727_S730L],0.941
15,IFRASYFRRGD [LTK_Y676_YF],0.613
16,DSYWSYCNAVA [SLC20A2_Y436_S434W],3.31

# Target: FGFR3 (UniProt P22607)
# Experiment: as above
# Chain of FGFR3 (P22607 whole entry, looked up): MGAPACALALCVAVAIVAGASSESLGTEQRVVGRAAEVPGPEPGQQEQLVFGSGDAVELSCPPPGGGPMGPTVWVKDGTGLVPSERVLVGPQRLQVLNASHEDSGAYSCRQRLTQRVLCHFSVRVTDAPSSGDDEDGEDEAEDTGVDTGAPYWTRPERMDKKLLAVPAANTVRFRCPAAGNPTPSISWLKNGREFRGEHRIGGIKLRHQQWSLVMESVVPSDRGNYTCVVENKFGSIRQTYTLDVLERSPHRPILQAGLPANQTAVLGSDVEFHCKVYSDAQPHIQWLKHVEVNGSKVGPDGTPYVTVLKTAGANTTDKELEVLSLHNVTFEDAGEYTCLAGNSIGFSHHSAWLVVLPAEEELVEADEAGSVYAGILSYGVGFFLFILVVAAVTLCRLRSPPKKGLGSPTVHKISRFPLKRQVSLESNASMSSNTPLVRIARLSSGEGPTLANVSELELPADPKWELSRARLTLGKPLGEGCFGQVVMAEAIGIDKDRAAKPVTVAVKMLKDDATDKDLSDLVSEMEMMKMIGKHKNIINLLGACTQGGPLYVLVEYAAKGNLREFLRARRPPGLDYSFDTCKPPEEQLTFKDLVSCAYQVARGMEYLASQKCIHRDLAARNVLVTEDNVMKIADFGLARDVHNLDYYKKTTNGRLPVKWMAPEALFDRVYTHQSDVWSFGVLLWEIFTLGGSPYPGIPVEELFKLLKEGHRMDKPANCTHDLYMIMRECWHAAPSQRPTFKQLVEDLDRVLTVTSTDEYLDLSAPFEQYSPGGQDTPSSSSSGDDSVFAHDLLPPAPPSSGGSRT
row,Sequence,phosphorylation enrichment
1,FRTPGYREVVI [TNS2_Y673_A670T_YF],0.6
2,ISNATYKQIGL [FLT1_Y199_E201Q],0.399
3,GRLFAYPDTHC [CAT_Y358_R363C],0.687
4,SLGKGYSDGGC [MC4R_Y35],0.585
5,EEGNPYYSGAR [MCCC2_Y520_S523G],0.552
6,GFPVRYTDVSN [DNMT3B_Y815_H814R],0.531
7,EIVFVYVKKRS [DNAI2_Y7_YF],0.467
8,QPSPSYDSSGG [TCF12_Y70_R74G],0.623
9,WSRAMYPDLGP [STARD8_Y330],0.575
10,IFHENYNAGTF [CFI_Y421_YF],0.465
11,DMGAQYAAASR [ARID1B_Y483_P488R],0.396
12,FQGRRYDCDCD [CRYGS_Y21],0.497
13,HNVPIYEGFGL [ACTA1_Y168_A172G_YF],0.519
14,PSTYRYERGSR [INPPL1_Y663_P659S],0.588
15,NAGAFYALSTL [FLVCR2_Y325],0.649
16,IEPVIYVVQRR [ANOS1_Y217],0.475
17,PSSNLYYRWLT [CNGA3_Y168],9.96

row,Sequence,phosphorylation enrichment
1,ETELPYQELQG [TYROBP_Y91_S89L],1.5
2,LRSKQYLRNPP [SHC1_Y315_F312S],0.37
3,KSFDMYSGDVM [FAM3D_Y122_A118S],0.667
4,ADRNHYRRFPR [YBX1_Y145_YF],0.508
5,QQMGTYGVRAA [ICAM2_Y260_R256Q],0.417
6,DDYDLYGGEKF [PTPN11_Y66_Y62D],0.681
7,MTRDIYETDFF [INSR_Y1185_YF],0.821
8,KLIETCFSKNF [PLP1_Y50_Y50C_YF],0.725
9,RIFDFYSARKT [STOX1_Y858_A863T_YF],0.496
10,FRDALYKFIVD [PHEX_Y250_M253I_YF],0.748
11,GDGRFYMKEAI [PGM1_Y66],0.682
12,YKEDPYLVVNP [MCM6_Y810_E806K],1.09
13,PSPMPYACCQM [FOXL2_Y215_S217C],0.812
14,IPTPAYQSLPA [PDCD6IP_Y727_S730L],0.711
15,IFRASYFRRGD [LTK_Y676_YF],0.469
16,DSYWSYCNAVA [SLC20A2_Y436_S434W],2.42
